{"source": "patent US20250340890", "about": "“DNA […] AS UNIVERSAL INHIBITORS OF SPIKE PROTEIN/HACE2 INTERACTIONS” (Bowling Green State University, published 2025)", "binders": {"B1": {"name": "A1C1 (ssDNA)", "DNA": "CGGGACGACGACGGACATCGTGAGAAATGGTCGACCTTGTGTCTGTCGTCCCG"}, "B2": {"name": "S2A2 (ssDNA)", "DNA": "CAAGGAGCGACCAGAGGCGGGTTCCTAGACTTGTACTCAGCCTTTACAGCTATGCCCTGGCATCCTTCAGCCC"}, "B3": {"name": "S2A1C1 (ssDNA)", "DNA": "CAAGGAGCGACCAGAGGGGCGGTTTATCAACAACTCGCTCTGTACACCACTCTTTG"}, "B4": {"name": "S2A1 (ssDNA)", "DNA": "CAAGGAGCGACCAGAGGGGCGGTTTATCAACAACTCGCTCTGTACACCACTCTTTGTTGGCATCCTTCAGCCC"}}, "key": {"PD-L1": {"target": "PD-L1 (UniProt Q9NZQ7 Q9NZQ7:19-238)", "sequence (Q9NZQ7 19-238, one chain of several)": "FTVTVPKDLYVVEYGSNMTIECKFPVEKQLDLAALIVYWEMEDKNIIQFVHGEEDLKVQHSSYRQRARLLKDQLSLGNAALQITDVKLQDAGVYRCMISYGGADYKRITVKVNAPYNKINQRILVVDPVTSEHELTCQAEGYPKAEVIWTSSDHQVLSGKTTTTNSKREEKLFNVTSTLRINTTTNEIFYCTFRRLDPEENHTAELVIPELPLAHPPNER"}, "[1]": {"target": "Bovine serum albumin (BSA) (Bos taurus, UniProt P02769 P02769:25-607)", "sequence (P02769 25-607, one chain of several)": "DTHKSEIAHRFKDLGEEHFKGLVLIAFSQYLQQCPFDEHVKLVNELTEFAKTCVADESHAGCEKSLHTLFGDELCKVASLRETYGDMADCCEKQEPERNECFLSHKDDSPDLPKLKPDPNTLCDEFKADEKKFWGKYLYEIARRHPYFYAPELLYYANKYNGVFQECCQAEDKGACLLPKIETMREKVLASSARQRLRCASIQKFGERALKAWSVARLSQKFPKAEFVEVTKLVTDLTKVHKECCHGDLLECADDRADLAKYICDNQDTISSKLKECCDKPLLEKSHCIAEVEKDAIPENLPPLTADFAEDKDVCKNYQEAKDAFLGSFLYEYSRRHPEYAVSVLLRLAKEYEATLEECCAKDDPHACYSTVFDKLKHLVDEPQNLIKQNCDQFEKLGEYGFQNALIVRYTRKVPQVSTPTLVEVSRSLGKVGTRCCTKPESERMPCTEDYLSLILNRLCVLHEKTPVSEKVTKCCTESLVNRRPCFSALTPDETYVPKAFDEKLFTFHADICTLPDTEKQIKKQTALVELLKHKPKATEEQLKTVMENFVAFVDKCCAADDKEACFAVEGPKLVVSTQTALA"}, "Lysozyme": {"target": "Lysozyme (UniProt P00698 P00698:19-147)", "sequence (P00698 19-147, one chain of several)": "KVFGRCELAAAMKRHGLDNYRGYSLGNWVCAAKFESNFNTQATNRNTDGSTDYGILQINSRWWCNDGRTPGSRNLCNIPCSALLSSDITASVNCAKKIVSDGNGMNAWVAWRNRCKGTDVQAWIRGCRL"}, "SARS-CoV-2 WT spike S1": {"target": "SARS-CoV-2 WT spike S1 (SARS-CoV-2, UniProt P0DTC2 P0DTC2:14-685)"}, "[2]": {"target": "SARS-CoV-2 WT spike S2 domain (SARS-CoV-2, UniProt P0DTC2 P0DTC2:686-1213)"}, "[3]": {"target": "SARS-CoV-2 WT spike S1S2 extracellular domain (SARS-CoV-2, UniProt P0DTC2)"}}}
{"binder": "AGGCGGGTTCCTAGACTTGTACTCAGCCT (ssDNA)", "note": "[S2A2C1]", "values": [{"measurement": "binding result", "setting": "PD-L1", "value": "no binding"}, {"measurement": "binding result", "setting": "[1]", "value": "no binding"}, {"measurement": "binding result", "setting": "Lysozyme", "value": "no binding"}, {"measurement": "binding result", "setting": "SARS-CoV-2 WT spike S1", "value": "no binding"}]}
{"binder": "CAAGGAGCGACCAGAGGCGGGTTCCTAGACTTGTACTCAGCCT (ssDNA)", "note": "[S2A2C3]", "values": [{"measurement": "binding result", "setting": "[2]", "value": "binds"}]}
{"binder": "B1", "values": [{"measurement": "binding result", "setting": "[1]", "value": "no binding"}]}
{"binder": "B2", "values": [{"measurement": "binding result", "setting": "[3]", "value": "binds"}]}
{"binder": "B3", "values": [{"measurement": "binding result", "setting": "[2]", "value": "binds"}]}
{"binder": "B4", "values": [{"measurement": "binding result", "setting": "[3]", "value": "binds"}]}
